We go through six molecules from patent US5254534A, “Adjuvant for cancer immunotherapy” (Green Cross Corporation, priority 1988, dated 1993).

Like-named read-outs stand apart in the source and are kept apart here.

The test system of data set [1] is mouse marrow cells. Nature of the data set: Colony stimulating activity: colony formation of mouse marrow cells on soft agar. It is filed as cell-based. The note with it: for specific activity: purified glycoprotein/CSF of the examples. The procedure: In biological activity measurement, the colony formation of mouse marrow cells in vitro was used as an activity measurement parameter. […] Thereafter, cell aggregates consisting of 50 or more cells were counted as colonies under an invert microscope.
One colony formed is taken as one unit.
Thus, the CSF sample was admixed with 1 ml of McCoy's 5A medium containing 0.3% agar, 20% fetal calf serum (FCS) and 1×10^5 mouse marrow cells. […] Thereafter, cell aggregates consisting of 50 or more cells were judged as colonies and counted. The colony stimulating activity was expressed in units. One unit was defined as the quantity of CSF required for the formation of one colony. The specific activity was expressed in terms of the number of colonies (units) formed per milligram of the CSF protein. […] The colonies formed were stained with hematoxylin-eosin for morphological classification.

The subject of another data set is TNF activity. Nature of the data set: Induction of TNF activity by mixed culture of monocytes and PICIBANIL (OK-432) plus CSF; cytocidal activity against L929 cells (crystal violet). It is filed as cell-based. The conditions noted are these: conclusions from Table 2. The procedure:
(3) Incubation was performed at 37° C. for 72 hours in a 5% CO2 atmosphere.
(4) The supernatant was assayed for TNF activity at timed intervals. The TNF activity was determined by measuring the cytocidal activity against L929 cells in terms of the absorbance of crystal violet.

For data set [2] the following is noted: 1% (by weight) aqueous solution; cited from earlier work.
For data set [3] the following is noted: cited from earlier work.
For data set [4] the following is noted: 1% (by weight) aqueous solution, 60° C. ±0.5° C., 30 minutes; cited from earlier work.
The next data set relates to human marrow cells. The conditions noted are these: cited from earlier work.
Another data set in a line: Isoelectric point. It is filed as physicochemical. The note with it: polyacrylamide gel isoelectric focusing and sucrose density gradient isoelectric focusing. An excerpt: The isoelectric point (pI) as determined by the polyacrylamide gel isoelectric focusing and sucrose density gradient isoelectric focusing techniques is 3.1-3.7.
The nature of data set [5]: Thermal stability of the CSF (60°C, then colony stimulating activity). It is filed as physicochemical. The conditions noted are these: 1 μg/ml, dilute buffer pH 7.0, 60°±0.5° C., 60 minutes. The procedure: The CSF was dissolved in a dilute buffer (pH 7.0) to a concentration of 1 μg/ml, and the solution was heated at 60°±0.5° C. for 60 minutes and then assayed for colony stimulating activity (to be mentioned later herein).

The subject of data set [6] is mammalian monocyte-macrophage series cells. The note with it: cited from earlier work.
For data set [7] the following is noted: polyacrylamide gel isoelectric focusing and sucrose density gradient isoelectric focusing; CSF (iv); cited from earlier work.
Data set [8] concerns mouse marrow cells. The note with it: CSF (iv), typical production method; cited from earlier work.
For data set [9] the following is noted: 60±0.5° C., 60 minutes; CSF (iv); cited from earlier work.
In another data set the test system is marrow cells. The conditions noted are these: cited from earlier work.

B1: Example 4: human urine-derived CSF isolated and purified in the same manner as in Example 3 with TSKG-3,000SW and phenyl-5pw (protein, UniProt P09603 33-554, looked up)
Macrophage colony-stimulating …: EEVSEYCSHMIGSGHLQSLQRLIDSQMETSCQITFEFVDQEQLKDPVCYLKKAFLLVQDIMEDTMRFRDNTPNAIAIVQLQELSLRLKSCFTKDYEEHDKACVRTFYETPLQLLEKVKNVFNETKNLLDKDWNIFSKNCNNSFAECSSQDVVTKPDCNCLYPKAIPSSDPASVSPHQPLAPSMAPVAGLTWEDSEGTEGSSLLPGEQPLHTVDPGSAKQRPPRSTCQSFEPPETPVVKDSTIGGSPQPRPSVGAFNPGMEDILDSAMGTNWVPEEASGEASEIPVPQGTELSPSRPGGGSMQTEPARPSNFLSASSPLPASAKGQQPADVTGTALPRVGPVRPTGQDWNHTPQKTDHPSALLRDPPEPGSPRISSLRPQGLSNPSTLSAQPQLSRSHSSGSVLPLGELEGRRSTRDRRSPAEPEGGPASEGAARPLPRFNSVPLTDTGHERQSEGSFSPQLQESVFHLLVPSVILVLLAVGGLLFYRWRRRSHQEPQRADSPLEQPEGSPLTQDDRQVELPV
In the case of B1, the specific activity with mouse marrow cells [1] is 1.5×10^8 units/mg protein. The “TNF activity (in words)” value in the data set with TNF activity is “does not cause TNF activity expression”.

B2: 2: heat-treated glycoprotein (CSF) from fresh urine collected from healthy humans (protein, UniProt P09603 33-554, looked up)
Macrophage colony-stimulating …: B1 Macrophage colony-stimulating …
modifications: heat-treated
notes: heat-treated glycoprotein (CSF) from fresh urine collected from healthy humans
Take B2: the specific activity with mouse marrow cells [1] was 1×10^7 units/mg protein.

B3: CSF (i): CSF disclosed in U.S. Pat. No. 4,275,056; glycoprotein, molecular weight 75,000-90,000 by gel filtration (protein, UniProt P09603 33-554, looked up)
Macrophage colony-stimulating …: B1 Macrophage colony-stimulating …
In the case of B3, the pH in data set [2] is 5.0-6.0. The Solubility in chloroform result in data set [3] (chloroform) is “slightly soluble”. Besides, the “Solubility in ethyl alcohol and acetone” value in data set [3] (ethyl alcohol and acetone) is listed as “insoluble”. Moreover, the Solubility in water entry in data set [3] (water) is on record as “soluble”. Also, the Temperature stability entry in [4] is “loses its ability to promote the differentiation and proliferation of human granulocytes”. Moreover, in the data set with human marrow cells, the “differentiation and proliferation of granulocytes” value is “promotes the differentiation and proliferation of granulocytes”.

B4: Example 3: purified CSF from human urine, homodimer of 70,000-90,000 daltons (protein, UniProt P09603 33-554, looked up)
Macrophage colony-stimulating …: B1 Macrophage colony-stimulating …
B4: the “isoelectric point (pI)” value in the data set “Isoelectric point” was 3.1-3.7. The “Thermal stability (colony stimulating activity decrease)” value in data set [5] is “Almost no activity decrease was observed”. For the same molecule, the “proportion of colonies that were monocyte-macrophage colonies” value in the data set with mouse marrow cells [1] (hematoxylin-eosin staining, 7 days at 37° C.) is on record as “at least 95%”. In the data set on mouse marrow cells [1], the specific activity is 1.4×10^8 units/mg protein.

B5: CSF (iv): CSF disclosed in JP-A-63-250400; glycoprotein, homodimer composed of two identical subunits (protein, UniProt P09603 33-554, looked up)
Macrophage colony-stimulating …: B1 Macrophage colony-stimulating …
In the case of B5, in [6], the colony stimulating activity entry is “has colony stimulating activity”. Moreover, the “isoelectric point (pI)” value in data set [7] is reported as 3.1-3.7. The specific activity with mouse marrow cells [8] is on record as 100,000-20,000,000 units/mg protein. Moreover, the “Thermal stability (biological activity)” value in [9] is “biological activity is not lost”.

B6: CSF (ii): CSF disclosed in JP-A-63-54398; glycoprotein, molecular weight about 70,000 by gel filtration (protein, UniProt P09603 33-554, looked up)
Macrophage colony-stimulating …: B1 Macrophage colony-stimulating …
B6: the “differentiation and proliferation of granulocytic series stem cells” value with marrow cells was “promotes the differentiation and proliferation of granulocytic series stem cells”.
